# Assay results published in the supplement of paper PMC10567573.
# B1: ADAMTS4 (parent)
# chain: HVDPEEPWSPCSARFITDFLDNGY
# Variants of: B1
# Experiment: protein stability index of a GFP-peptide fusion (GPS, HEK-293T) (PSI 1-6); higher = more stable
# Conditions: c terminus: a fixed tail appended
# 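Also: lentivirally expressed fusions sorted by FACS into six bins by GFP to DsRed ratio, PSI derived from sequencing read proportions per bin multiplied by bin number.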
row,Variant,protein stability index
1,HVDPEELWSPCSARFITDFLDNGY,3.65
2,HVDPEEDWSPCSARFITDFLDNGY,2.7
3,HVDPEECWSPCSARFITDFLDNGY,2.11
4,HVDPEEIWSPCSARFITDFLDNGY,1.61
5,HVDPEENWSPCSARFITDFLDNGY,1.74
6,HVDPEETWSPCSARFITDFLDNGY,1.9
7,HVDPEEVWSPCSARFITDFLDNGY,2.56
8,HVDPEEEWSPCSARFITDFLDNGY,2.67
9,HVDPEESWSPCSARFITDFLDNGY,2.35
10,HVDPEEHWSPCSARFITDFLDNGY,1.57
11,HVDPEEFWSPCSARFITDFLDNGY,2.85
12,HVDPEEKWSPCSARFITDFLDNGY,1.89
13,HVDPEERWSPCSARFITDFLDNGY,2.14
14,HVDPEEAWSPCSARFITDFLDNGY,1.48
15,HVDPEEWWSPCSARFITDFLDNGY,2.54
16,HVDPEEYWSPCSARFITDFLDNGY,2.79
17,HVDPEEQWSPCSARFITDFLDNGY,1.72
18,HVDPEEGWSPCSARFITDFLDNGY,1.92
19,HVDPEEMWSPCSARFITDFLDNGY,2.23
20,HVDPEWPWSPCSARFITDFLDNGY,2.57
21,HVDPEVPWSPCSARFITDFLDNGY,1.79
22,HVDPERPWSPCSARFITDFLDNGY,2.44
23,HVDPEMPWSPCSARFITDFLDNGY,2.59
24,HVDPETPWSPCSARFITDFLDNGY,1.77

row,Variant,protein stability index
1,HVDPEKPWSPCSARFITDFLDNGY,1.64
2,HVDPESPWSPCSARFITDFLDNGY,2.43
3,HVDPEAPWSPCSARFITDFLDNGY,1.85
4,HVDPEHPWSPCSARFITDFLDNGY,1.74
5,HVDPEFPWSPCSARFITDFLDNGY,2.19
6,HVDPEGPWSPCSARFITDFLDNGY,1.92
7,HVDPELPWSPCSARFITDFLDNGY,2.05
8,HVDPEIPWSPCSARFITDFLDNGY,1.56
9,HVDPEYPWSPCSARFITDFLDNGY,2.07
10,HVDPEQPWSPCSARFITDFLDNGY,2.24
11,HVDPEPPWSPCSARFITDFLDNGY,2.72
12,HVDPEDPWSPCSARFITDFLDNGY,1.76
13,HVDPECPWSPCSARFITDFLDNGY,2.21
14,HVDPENPWSPCSARFITDFLDNGY,1.94
15,HVDWEEPWSPCSARFITDFLDNGY,1.69
16,HVDFEEPWSPCSARFITDFLDNGY,1.63
17,HVDAEEPWSPCSARFITDFLDNGY,1.63
18,HVDDEEPWSPCSARFITDFLDNGY,2.11
19,HVDGEEPWSPCSARFITDFLDNGY,2.9
20,HVDTEEPWSPCSARFITDFLDNGY,1.8
21,HVDKEEPWSPCSARFITDFLDNGY,1.87
22,HVDYEEPWSPCSARFITDFLDNGY,1.98
23,HVDCEEPWSPCSARFITDFLDNGY,2.23
24,HVDHEEPWSPCSARFITDFLDNGY,2.21

row,Variant,protein stability index
1,HVDVEEPWSPCSARFITDFLDNGY,1.62
2,HVDREEPWSPCSARFITDFLDNGY,2.42
3,HVDQEEPWSPCSARFITDFLDNGY,1.9
4,HVDSEEPWSPCSARFITDFLDNGY,1.9
5,HVDIEEPWSPCSARFITDFLDNGY,1.77
6,HVDNEEPWSPCSARFITDFLDNGY,1.95
7,HVDLEEPWSPCSARFITDFLDNGY,1.63
8,HVDMEEPWSPCSARFITDFLDNGY,1.77
9,HVDEEEPWSPCSARFITDFLDNGY,2.07
10,HVDPEEPWWPCSARFITDFLDNGY,1.75
11,HVDPEEPWGPCSARFITDFLDNGY,2.24
12,HVDPEEPWAPCSARFITDFLDNGY,2.05
13,HVDPEEPWYPCSARFITDFLDNGY,1.85
14,HVDPEEPWRPCSARFITDFLDNGY,1.93
15,HVDPEEPWIPCSARFITDFLDNGY,2.29
16,HVDPEEPWTPCSARFITDFLDNGY,1.79
17,HVDPEEPWNPCSARFITDFLDNGY,1.67
18,HVDPEEPWDPCSARFITDFLDNGY,2.79
19,HVDPEEPWLPCSARFITDFLDNGY,1.67
20,HVDPEEPWHPCSARFITDFLDNGY,2.17
21,HVDPEEPWPPCSARFITDFLDNGY,2.32
22,HVDPEEPWCPCSARFITDFLDNGY,2.08
23,HVDPEEPWKPCSARFITDFLDNGY,1.97
24,HVDPEEPWEPCSARFITDFLDNGY,3.19

row,Variant,protein stability index
1,HVDPEEPWQPCSARFITDFLDNGY,1.62
2,HVDPEEPWVPCSARFITDFLDNGY,1.66
3,HVDPEEPWMPCSARFITDFLDNGY,1.77
4,HVDPEEPWFPCSARFITDFLDNGY,1.93
5,HVDPEEPWSACSARFITDFLDNGY,1.75
6,HVDPEEPWSTCSARFITDFLDNGY,1.92
7,HVDPEEPWSVCSARFITDFLDNGY,1.74
8,HVDPEEPWSSCSARFITDFLDNGY,2.49
9,HVDPEEPWSKCSARFITDFLDNGY,2.21
10,HVDPEEPWSNCSARFITDFLDNGY,1.99
11,HVDPEEPWSECSARFITDFLDNGY,2.48
12,HVDPEEPWSLCSARFITDFLDNGY,1.72
13,HVDPEEPWSWCSARFITDFLDNGY,2.08
14,HVDPEEPWSYCSARFITDFLDNGY,1.79
15,HVDPEEPWSICSARFITDFLDNGY,2.1
16,HVDPEEPWSRCSARFITDFLDNGY,1.83
17,HVDPEEPWSHCSARFITDFLDNGY,1.81
18,HVDPEEPWSQCSARFITDFLDNGY,2.1
19,HVDPEEPWSMCSARFITDFLDNGY,2.14
20,HVDPEEPWSFCSARFITDFLDNGY,1.92
21,HVDPEEPWSDCSARFITDFLDNGY,2.22
22,HVDPEEPWSCCSARFITDFLDNGY,1.5
